Data as given in publication PMC8424379 (2021).

B1: Ccq1_(496–583), Raf2-binding motif of Ccq1, fused to Gal4 activation domain [S. pombe] / Raf2 fused to Gal4 DNA-binding domain [S. pombe] (parent complex)
chain 1: SQQEADEVELSNNYDLQGAAVQYLQRRLRMVEDELHEAINSKNVQQSRSEELEQQISKLTDNLQEYRNTVRELKLDLEKSKKKNEDLS
chain 2: MPPVRAEKKRKTDLIEQVCVTNKAGELVDLEDVLEYGPYSLTGILSSEKDEQEPLFDESIVLGYSIKISPVWTYNLKDVPEKETMSIWIVTPQRRYGILSPSSEYKAIYEQISEKNRLFYLIKTKFKDDMISGTLEDYDNYIEVLKEKLELPSCFQAILLVQKHIRFLLTQMVATSSLHVWSESPFFIRIRSSYEHLILQINKNIYNARQERKKSKLSSNNPSDNNTTMKSSLNQALTLINLPEQPFSISSPTATPQLGVVKRTSPLRFPLNDIWLSGLRIVDPNIESISLWKRIQVSTSPKHQRYISLQEVCSVIAQQLQITNLEALNKLSSHGETLLQIMHTAFTWRGTKLFNDIKHAIGFRSSVQQARSQFRGYCYDYLFMHCNNGEKTSLHLLRTLICMKLDFSNAQLAAKILFHFLLFDIGSGLSGSDYTYEQYINHSAVAFSFTEEIFEKNFVTVLPDFVKLFSISFGYWPAFSFYDELLKLLRNKYPKVYSSTPNLCDQVWLDRTNLFPCNRSTRSTLPYRPTKLLDLASASSCLSKKETDFKQDTGLYSYNLEKVEALKVSPDLQTGIWSCPVQNCLYFAVCDNPYKPSQVIYDHLLGHVDSKFIFKTPSNSVRSFTNKLEHIMYNIN
B2: full-length Ccq1 fused to Gal4 activation domain [S. pombe] / Raf2 fused to Gal4 DNA-binding domain [S. pombe] (parent complex)
chain 1: MSEINDFTNSIIINESDTKYEVYSEVNSSNRWIAKEDCPSPLEDVWLLKLAGHKRKLEEPLSCMRNEEPASKQREIEKFLRTDLDHSENDFLTQEVDEFPSTQQLFPIPLQNDTAFDSSEESITKSSKSSFSVLDIGLPMSALQRKMMHRLVQYFAFCIDHFCTGPSDSRIQEKIRLFIQSAHNIAKHPSLYDTEVRNPSAAESTNSHVSLDASNFSSYAENSSKFLFLQELFKNLSPSYSKTFFLFISNQFLANTLTQWLKSQNIDAELWAEEDAKTSQHPAIWICVSKKAPSASHFLQSCPDLSATIFYDIEAYMSVTSSLPSIQSLVLRLIHLGSIEHAIKCFQSSYNASFLVNIVGVVATLSSSSEENSEASNLSTLFEKSGNFEEILGSESHSSITEKTRDIAKNVATWLKNGENFSSWPLPPLMDLASLSVAEPRDSQPSVSQVNDTFVKSSDSTFPSSQSMQSPSKLHSLTSNATDLLSSSSLKKNFFSQQEADEVELSNNYDLQGAAVQYLQRRLRMVEDELHEAINSKNVQQSRSEELEQQISKLTDNLQEYRNTVRELKLDLEKSKKKNEDLSKLEVEKVEEIANLKKELTHLAKQQEFGFKYVQEFSNEDLQGKLIEANEKNYKLTQLLKTQKEDADFITNQYQNASTFAAEQSKEVAKLQAECKRLQAINSKVMEEVKVYNDSRVEALLAKVSSLEETLKILEQKSLPKFTPHNQSPRIIDSN
chain 2: B1 chain 2
B3: full-length Ccq1 fused to Gal4 activation domain [S. pombe] / Tpz1 fused to the Gal4 DNA binding domain [S. pombe] (parent complex)
chain 1: B2 chain 1
chain 2: MSNCLKHPWLENGLLNLIKNADVLPIRVFKCQPLQIFEYIRYEHPIRCKLSDTEFYIEAEFSSQSISDLNNFTEKRITSLRGGIVTLGNFLIHLIPSQSGIIPWIQVESFNFQGCEGAVFGNPKAITTSALFNALLQSPYLAALANEFNRSIKEGSSYQEASLSQQEKPNDNTSNSRDIKNNIQFHWKNMTSLSIEECIIPKGQQLILEKESEENTTHGIYLEERKMAQGLHNSVSETPEVKQEDNDEDLDAYSWSSSTDSAGEIPSLPTNRKILEKIAEKPPPFESPLEDDETPDQTNEHEANQVNVSQLPLNPRGSGISGRPVESTEQLNSSLTIERSQSIQSTDSKQRVETQSHRRSKIEIFDAQDELFDRSICTTIDDSTGKLLNAEETPIKTGDLHSTSASSVISCTPPAINFTSDICNEQIELEYKRKPIPDYDFMKGLETTLQELYVEHQSKKRRLELFQLTNNHQKNSEACEMCRLGLPHGSFFELLRDWKKIEEFRNKS
B4: full-length Ccq1 fused to Gal4 activation domain [S. pombe] / Clr3 fused to the Gal4 DNA binding domain [S. pombe] (parent complex)
chain 1: B2 chain 1
chain 2: MLASNSDGASTSVKPSDDAVNTVTPWSILLTNNKPMSGSENTLNNESHEMSQILKKSGLCYDPRMRFHATLSEVDDHPEDPRRVLRVFEAIKKAGYVSNVPSPSDVFLRIPAREATLEELLQVHSQEMYDRVTNTEKMSHEDLANLEKISDSLYYNNESAFCARLACGSAIETCTAVVTGQVKNAFAVVRPPGHHAEPHKPGGFCLFNNVSVTARSMLQRFPDKIKRVLIVDWDIHHGNGTQMAFYDDPNVLYVSLHRYENGRFYPGTNYGCAENCGEGPGLGRTVNIPWSCAGMGDGDYIYAFQRVVMPVAYEFDPDLVIVSCGFDAAAGDHIGQFLLTPAAYAHMTQMLMGLADGKVFISLEGGYNLDSISTSALAVAQSLLGIPPGRLHTTYACPQAVATINHVTKIQSQYWRCMRPKHFDANPKDAHVDRLHDVIRTYQAKKLFEDWKITNMPILRDSVSNVFNNQVLCSSNFFQKDNLLVIVHESPRVLGNGTSETNVLNLNDSLLVDPVSLYVEWAMQQDWGLIDINIPEVVTDGENAPVDILSEVKELCLYVWDNYVELSISKNIFFIGGGKAVHGLVNLASSRNVSDRVKCMVNFLGTEPLVGLKTASEEDLPTWYYRHSLVFVSSSNECWKKAKRAKRRYGRLMQSEHTETSDMMEQHYRAVTQYLLHLLQKARPTSQ

Variants of: B1
Experiment: yeast two-hybrid (β-galactosidase); Raf2 fused to Gal4 DNA-binding domain; Ccq1 fused to Gal4 activation domain; read off a plot

Variant	response
chain 1 SQQEADEVELSNNYDLQGAAVQYLQRRLRMVEDELHEAINSKNVQQSRSEEREQQISKLTDNLQEYRNTVRELKLDLEKSKKKNEDLS [chain 1 L52R]	~63
chain 1 SQQEADEVELSNNYDLQGAAVQYLQRRLRMVEDELHEARNSKNVQQSRSEELEQQISKLTDNLQEYRNTVRELKLDLEKSKKKNEDLS [chain 1 I39R]	~90
chain 1 SQQEADEVELSNNYDLQGAAVQYLQRRLRMVEDELHEAINSKNVQQSRSEELEQQISKLTDNRQEYRNTVRELKLDLEKSKKKNEDLS [chain 1 L63R]	~85
chain 1 SQQEADERELSNNYDLQGAAVQYLQRRLRMVEDELHEAINSKNVQQSRSEELEQQISKLTDNLQEYRNTVRELKLDLEKSKKKNEDLS [chain 1 V8R]	~82
chain 1 SQQEADEVELSNNYDLQGAAVQYLQRRLRMVEDELHEAINSKNRQQSRSEELEQQISKLTDNLQEYRNTVRELKLDLEKSKKKNEDLS [chain 1 V44R]	~81
chain 1 SQQEADEVELSNNYDLQGAAVQYLQRRRRMVEDELHEAINSKNVQQSRSEELEQQISKLTDNLQEYRNTVRELKLDLEKSKKKNEDLS [chain 1 L28R]	~3
chain 1 SQQEADEVELSNNRDLQGAAVQYLQRRLRMVEDELHEAINSKNVQQSRSEELEQQISKLTDNLQEYRNTVRELKLDLEKSKKKNEDLS [chain 1 Y14R]	~88
chain 1 SQQEADEVELSNNYDLQGAAVQRLQRRLRMVEDELHEAINSKNVQQSRSEELEQQISKLTDNLQEYRNTVRELKLDLEKSKKKNEDLS [chain 1 Y23R]	~3
chain 1 SQQEADEVELSNNYDLQGAAVQYLQRRLRMVEDERHEAINSKNVQQSRSEELEQQISKLTDNLQEYRNTVRELKLDLEKSKKKNEDLS [chain 1 L35R]	~74
chain 1 SQQEADEVELSNNYDLQGAAVQYLQRRLRRVEDELHEAINSKNVQQSRSEELEQQISKLTDNLQEYRNTVRELKLDLEKSKKKNEDLS [chain 1 M30R]	~92
chain 1 SQQEADEVELSNNYDLQGAARQYLQRRLRMVEDELHEAINSKNVQQSRSEELEQQISKLTDNLQEYRNTVRELKLDLEKSKKKNEDLS [chain 1 V21R]	~2.8
chain 1 SQQEADEVELSNNYDLQGAAVQYRQRRLRMVEDELHEAINSKNVQQSRSEELEQQISKLTDNLQEYRNTVRELKLDLEKSKKKNEDLS [chain 1 L24R]	~2.5
chain 1 SQQEADEVELSNNYDRQGAAVQYLQRRLRMVEDELHEAINSKNVQQSRSEELEQQISKLTDNLQEYRNTVRELKLDLEKSKKKNEDLS [chain 1 L16R]	~3
chain 1 SQQEADEVELSNNYDLQGAAVQYLQRRLRMVEDELREAINSKNVQQSRSEELEQQISKLTDNLQEYRNTVRELKLDLEKSKKKNEDLS [chain 1 H36R]	~94
chain 1 SQQEADEVELSNNYDLQGAAVQYLQRRLRMREDELHEAINSKNVQQSRSEELEQQISKLTDNLQEYRNTVRELKLDLEKSKKKNEDLS [chain 1 V31R]	~80
chain 1 SQQEADEVERSNNYDLQGAAVQYLQRRLRMVEDELHEAINSKNVQQSRSEELEQQISKLTDNLQEYRNTVRELKLDLEKSKKKNEDLS [chain 1 L10R]	~87
chain 1 SQQEADEVELSNNYDLQGAAVQYLQRRLRMVEDELHEAINSKNVQQSRSEELEQQISKLTDNLQERRNTVRELKLDLEKSKKKNEDLS [chain 1 Y66R]	~79

Variants of: B2
Experiment: yeast two-hybrid (β-galactosidase); Raf2 fused to Gal4 DNA-binding domain; Ccq1 fused to Gal4 activation domain; parent: 97; read off a plot

Variant	response
chain 1 L519R	~4.8
chain 1 L511R	~3.8
chain 1 Y518R	~4.5
chain 1 L523R	~51
chain 1 V516R	~3.8
chain 1 M525R	~110
chain 1 V526R	~110

Variants of: B3
Experiment: yeast two-hybrid (β-galactosidase); Tpz1 fused to the Gal4 DNA binding domain; Ccq1 fused to Gal4 activation domain; parent: 94; read off a plot

Variant	response
chain 1 L511R	~95
chain 1 L519R	~83
chain 1 L523R	~90
chain 1 V516R	~81
chain 1 Y518R	~91

Variants of: B4
Experiment: yeast two-hybrid (β-galactosidase); Clr3 fused to the Gal4 DNA binding domain; Ccq1 fused to Gal4 activation domain; parent: 97; read off a plot

Variant	response
chain 1 Y518R	~80
chain 1 V516R	~82
chain 1 L511R	~88
chain 1 L523R	~94
chain 1 L519R	~89
